Measurements: patent US20180346564A1
Substitutions are numbered along the chain they refer to. Names and notes keep the numbering of the source.

T1: phosphorylated peptide (PRHLSNVS(pS)TGSIDMVD) of Example 10 (human)
T1 sequence (peptide, phosphoserine (pS) at peptide position 9): PRHLSNVSSTGSIDMVD

B1: Humanized × [MAPT_H] mAb (Ta1505-VL46_G34T/VH11) IgG4 S228P/Kappa (CX) (antibody, V domains shown)
VH: EVQLVESGGGLVQPGGSLRLSCAASGFTFSSFALNWVRQAPGKGLEWVGHIRSKTNNYATFYAASVKDRFTVSRDDSQNTAYLQMNSLKTEDTATYYCVRRGPRDSWFGYWGQGTLVTVSS
VL: DIVMTQSPLSLPVTLGEPASISCRSSQSIVHSNTNTYLEWYLQKPGQSPQLLIYTVSNRFSGVPDRFSGSGSGTDFTLKISRVEAEDLGVYYCFQGSHLPLTFGGGTKVEIKR
B2: Humanized × [MAPT_H] mAb (Ta1505-VL46 S28N/VH11) IgG4 S228P/Kappa (CX) (antibody, V domains shown)
VH: B1 VH
VL: B1 VL with S28N, T34G
B3: Humanized × [MAPT_H] mAb (Ta1505-VL46_N33S/VH11) IgG4 S228P/Kappa (CX) (antibody, V domains shown)
VH: B1 VH
VL: B1 VL with N33S, T34G
B4: Humanized × [MAPT_H] mAb (Ta1505-VL46_N33T/VH11) IgG4 S228P/Kappa (CX) (antibody, V domains shown)
VH: B1 VH
VL: B1 VL with N33T, T34G
B5: Humanized × [MAPT_H] mAb (Ta1505-VL46_N33Q_G34A/VH11) IgG4 S228P/Kappa (CX) (antibody, V domains shown)
VH: B1 VH
VL: B1 VL with N33Q, T34A
B6: Humanized × [MAPT_H] mAb (Ta1505-VL46_N33Q/VH11) IgG4 S228P/Kappa (CX) (antibody, V domains shown)
VH: B1 VH
VL: B1 VL with N33Q, T34G

Target: T1, phosphorylated peptide (PRHLSNVS(pS)TGSIDMVD) of Example 10 (human)
Assay: ELISA, pS413 peptide coated at 1 ug/ml, antibody titrated, goat anti-human-HRP, ABTS, OD405 (Example 10)

| EC50 (read off the curve) [µg/mL] | Binder |
| --- | --- |
| 0.01 | B1 |
| 0.006 | B2 |
| 0.02 | B3 |
| 0.01 | B4 |
| 0.02 | B5 |
| 0.02 | B6 |
